Experimental data taken from US20170037146A1 (GENOR BIOPHARMA, published 2017).

Biological target: T1, Human HER2 antigen (Sino Biological Inc., catalog number 10004-H08H) (human, UniProt P04626 23-652)
T1 construct: Bought antigen coated on the ELISA plate
Experiment: ELISA on coated human HER2 antigen, anti-human IgG Fc-HRP detection
Experimental: Human HER2 antigen (purchased from Sino Biological Inc., catalog number: 10004-H08H) was diluted to 1 μg/ml using PBS buffer, and added to an ELISA plate at 100 μl/well to perform coating at 4° C. overnight. The plate was washed with PBST for four times, then 5% BSA (purchased from Amresco, USA, catalog number: 0332-100g, the solution being PBS) was added at 300 μl/well to perform blocking at room temperature for 1 hour. […] Each of the dilutions was added to an ELISA plate at 100 μl/well and incubated at room temperature for 1 hour. The plate was washed with PBST for four times, then HRP-labeled goat anti-human IgG Fc antibody (purchased from CalBiochem Inc., USA, catalog number: AP113A-K) was diluted at 1:10000 with PBS buffer, and added to the ELISA plate at 100 μl/well to perform incubation at room temperature for 1 hour. The plate was washed with PBST for four times, then a solution of 3,3′,5,5′-tetramethylbenzidine substrate (purchased from Tiangen Co., Ltd., catalog number: PA107-01) was added at 100 μl/well to perform incubation at room temperature for 15 minutes for visualization. A stop solution (1 M sulfuric acid) was added at 50 μl/well, and absorbance value was read at 450/630 nm wavelength on an M5 multi-functional ELISA plate (Molecular Devices Inc., USA).

binding result | Binder
binds | GB235-019 recombinant full-length IgG1 isotype antibody (wild type) (antibody, V domains shown, N-linked glycan at Asn73 (Fab framework region 3), Full-length IgG1 expressed in FreeStyle 293F cells; Derived from scFv clone WG1-019; also called GB235-019WT; GB235-019 wild-type antibody) VH: EVQLVQSGAEVKKPGAPVKVSCKASGYTFTSYDINWVRQATGQGLEWMGWMNPNSGNTGYAQKFQGRVTMTRNTSISTAYMELSSLRSEDTAVYYCARGYYLSRGDFWGQGTLVTVSS VL: DIQMTQSPSSVSASVGDRVTITCRASQGISSWLAWYQQKPGKAPKLLIYAASSLQSGVPSRFSGSGSGTDFTLTISSLQPEDFATYYCQQANSFPLTFGGGTKVEIKR
binds | GB235-019N73D mutated antibody (antibody, human IgG1, kappa, V domains shown, full-length IgG1) VH: EVQLVQSGAEVKKPGAPVKVSCKASGYTFTSYDINWVRQATGQGLEWMGWMNPNSGNTGYAQKFQGRVTMTRDTSISTAYMELSSLRSEDTAVYYCARGYYLSRGDFWGQGTLVTVSS VL: DIQMTQSPSSVSASVGDRVTITCRASQGISSWLAWYQQKPGKAPKLLIYAASSLQSGVPSRFSGSGSGTDFTLTISSLQPEDFATYYCQQANSFPLTFGGGTKVEIKR
binds | GB235-019N73Q mutated antibody (antibody, human IgG1, kappa, V domains shown, full-length IgG1) VH: EVQLVQSGAEVKKPGAPVKVSCKASGYTFTSYDINWVRQATGQGLEWMGWMNPNSGNTGYAQKFQGRVTMTRQTSISTAYMELSSLRSEDTAVYYCARGYYLSRGDFWGQGTLVTVSS VL: DIQMTQSPSSVSASVGDRVTITCRASQGISSWLAWYQQKPGKAPKLLIYAASSLQSGVPSRFSGSGSGTDFTLTISSLQPEDFATYYCQQANSFPLTFGGGTKVEIKR
binds | GB235-019S75A mutated antibody (antibody, human IgG1, kappa, V domains shown, full-length IgG1; also called GB235-019575A) VH: EVQLVQSGAEVKKPGAPVKVSCKASGYTFTSYDINWVRQATGQGLEWMGWMNPNSGNTGYAQKFQGRVTMTRNTAISTAYMELSSLRSEDTAVYYCARGYYLSRGDFWGQGTLVTVSS VL: DIQMTQSPSSVSASVGDRVTITCRASQGISSWLAWYQQKPGKAPKLLIYAASSLQSGVPSRFSGSGSGTDFTLTISSLQPEDFATYYCQQANSFPLTFGGGTKVEIKR
